Test: yeast display, Sf9 membrane polyspecificity reagent, FACS + sequencing; frameworks hold sequencing errors
Procedure, shortened: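 Synthetic nanobody libraries on Saccharomyces cerevisiae BJ5465 were galactose-induced for 36–48 hours, stained 1 hour at 4 °C with 10% biotinylated, detergent-solubilized Sf9 membrane reagent and enriched on streptavidin microbeads. FACS then separated cells into low and high (top ~1%) gates by anti-HA (expression) and streptavidin (reagent binding) fluorescence. Genes were colony-PCR amplified, MiSeq 2 × 250 sequenced and CDR-length filtered. A clone's polyreactivity label is that of its gate of origin.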

| Sequence | polyreactivity (PSR sort gate) |
| --- | --- |
| QVQLVESGGGLVQAGGSLRLSCAASGFTFYRYVMGWYRQAPGKERELVAAISWNGGRTYYADSVKGRFTISRDNAKNTVYLQMNSLKPEDTAVYYCAAVPGSRSYGGDYWGQGTQVTVSS | high polyreactivity |
| QVQLVESGGGLVQAGGSLRLSCAASGFTFYRYVMGWYRQAPGTERELVAAITGGGRTYYADSVKGRFTISRDNAKNTVYLQMNSLKPEDTAVYYCNKAVPAWGLFDYWGQGTQVTVSS | low polyreactivity |
| QVQLVESGGGLVQAGGSLRLSCAASGFTFYSYAMGWYRQAPGKERELFAAITQSGGSTYYADSVKGRFTISRDNAKNTVYLQMNSLKPEDTAVYYCAADIYNDYDYGYYYWGQGTQVTVSS | low polyreactivity |
| QVQLVESGGGLVQAGGSLRLSCAASGFTFYSYAMGWYRQAPGKERELVAAISRSGGSTRYADSVKGRFTISRDNAKNTVYLQMNSLKPEDTAVYYCNAGKYRAYDYWGQGTQVTVSS | high polyreactivity |
| QVQLVESGGGLVQAGGSLRLSCAASGFTFYSYAMGWYRQAPGKERELVASISQSGGRTYYADSVKGRFTISRDNAKNTVYLQMNSLKPEDTAVYYCARQRSYGRSSYSYGYDYWGQGTKVTVSS | high polyreactivity |
| QVQLVESGGGLVQAGGSLRLSCAASGFTFYTFAMGLYRQAPGKERELVASITNGGGTYYADSVKGRFTNSRDNAKNTVYLQMNSLKPEDTAVFYCARRVYYWGRYKDEYNYWGQGTQVTVSS | high polyreactivity |
| QVQLVESGGGLVQAGGSLRLSCAASGFTFYWYAMGWYRQAPGKERELVAAISTSDTSTYADSVKGRFTISRDNAKNTVYLQMNSLKPEDTAVYYCNRRQYYYYGTSRYNYWGQGTQVTVSS | low polyreactivity |
| QVQLVESGGGLVQAGGSLRLSCAASGFTFYWYAMGWYRQAPGKERELVATINWRGDTYYADSVKGRFTISRDNAKNTVYLQMNSLKPEDTAVYYCAATKRLAPRPLRLGYGSYNFCGQGTQVTVSS | high polyreactivity |
| QVQLVESGGGLVQAGGSLRLSCAASGFTFYYNAMGCYRQAPGKERELVASISSNGTSTYYADSVKGRFTISRDNAKNTVYLQMNSLKPEDTAVYYCNVDIFDPRTYDYWGQGTQVTVSS | low polyreactivity |
| QVQLVESGGGLVQAGGSLRLSCAASGFTFYYNAMGWYRQAPGKERELVASISRGTSTNYADSVKGRFTISRDNAKNTVYLQMNSLKPEDTAVYYCAAKSYSDYDYWGQGTQVTVSS | low polyreactivity |
| QVQLVESGGGLVQAGGSLRLSCAASGFTFYYNAMGWYRQAPGKERELVSIRFRGGNTYYADSVKVRFTISRDNAKNTVYLQMNSLKPVDTAVYYCNADDRVSTYVDFDYWGQGTQVTVSS | low polyreactivity |
| QVQLVESGGGLVQAGGSLRLSCAASGFTFYYYAMGLYRQAPGKERELVAAITYSGGSTYYADSVKGRFTISRDNAKNTVYLQMNSLKPEDTAVYYCAAEAIPRLSWWYGVDYWGQGTQVTVSS | low polyreactivity |
| QVQLVESGGGLVQAGGSLRLSCAASGFTFYYYAMGWYRQAPGKERELVAAINGGSSTNYADSVKGRFTISRDNAKNTVYLQMNSLKPDDTAVYYCAAETRFYRNIDKIYFVLDRVDYWGQGTQVTVSS | low polyreactivity |
| QVQLVESGGGLVQAGGSLRLSCAASGFTFYYYAMGWYRQAPGKERELVAAISDSGGITSYADSVKGRFTISRDNAKNTVYLQMNSLKPEDTAVYYCAAEWSQWPYDYWGQGTQVTVSS | low polyreactivity |
| QVQLVESGGGLVQAGGSLRLSCAASGFTFYYYAMGWYRQAPGKERELVAGINSDGNTYYADSVKGRFTISRDNAKNNVYLQMNSLKPEDTAVYYCAASKLWPKNFVRHDYWGQGTQVTVSS | low polyreactivity |
| QVQLVESGGGLVQAGGSLRLSCAASGFTFYYYAMGWYRQAPGKERELVARITSGGSTYYADSVKGRFTISRDNAKNTVYLQMISLKPEDTAVYYCNVDVSVEVAYWGQGTQVTVSS | low polyreactivity |
| QVQLVESGGGLVQAGGSLRLSCAASGFTFYYYAMGWYRQAPGKERELVATISSGGSTYYADSVKGRFTISRDNAKNTVYLQMNSLKPEDTAVYYCAADYLIYYLYEGSIKYGYWGQGTQVTVSS | high polyreactivity |
| QVQLVESGGGLVQAGGSLRLSCAASGFTFYYYAMGWYRQEPGKERELVAAISSRGGSTYYADSVKGRFTISRDNAKNTVYLQMNSLKREDTPVYYCAAVYKYGGATYRSTSYYYWGQGTQVTVSS | high polyreactivity |
| QVQLVESGGGLVQAGGSLRLSCAASGFTFYYYPMGWYRQAPGKERELVAAISSSGGRTYYADSVKGRFTISRDNSKNTVYLQMNSLKPEDTAVYYCAADRYFRSYDYWGQGTQVTVSS | high polyreactivity |
| QVQLVESGGGLVQAGGSLRLSCAASGFTFYYYTMGWYRQAPGKERELVAAITLSGSTTYYADSVKGRFTISRDNAKNTVYLQMNSLKPEDTAVYYCAAGFSYEWGYPTFDYWGQGTQVTVSS | low polyreactivity |
| QVQLVESGGGLVQAGGSLRLSCAASGFTFYYYTMGWYRQAPGKERELVAGITSRGGSTTYADSVKGRFTISRDNAKNTVYLQMNSLKPEDTAVYYCNARWAVHSGYDYWGQGTLVTVSS | high polyreactivity |
| QVQLVESGGGLVQAGGSLRLSCAASGFTIAPDAMGWYRPAPGKERELVADISYSGGSKYYADSVKGRFTISRDTAKNTVYLQMNSLKPEDTAVYYCNAVIWWYWGRSYAYNYWGQGTQVTVSS | high polyreactivity |

| Sequence | polyreactivity (PSR sort gate) |
| --- | --- |
| QVQLVESGGGLVQAGGSLRLSCAASGFTIGKNAMGWYRQAPGKERELVAAISLSGGRTYADSVKGRFTISRDNAKNTVYLQTNSLKPEDTAVYYCAANRYPKFYWGQGTQVTVSS | high polyreactivity |
| QVQLVESGGGLVQAGGSLRLSCAASGFTIGSNVMGWYRQAPGKERELVAAISSRGGSTYYADSVKGRFTISRDNAMNTVYLQMNSLKPEDTAVYDCAADAYYRGGWGDYWGQGTQVTVSS | high polyreactivity |
| QVQLVESGGGLVQAGGSLRLSCAASGFTIGYNVMGWYRQAPGKERELVATISWNGARTYYADSVKGRFTISRDNAKNTVYLQMNSLKPEDTAVYYCAARRYYRGEYDYWGQGTQVTVSS | low polyreactivity |
| QVQLVESGGGLVQAGGSLRLSCAASGFTIGYYVMGWYRQAPGKDRELVAAITRSGSRTYYADSVKGRFTISRDNAKNTVYLQMNSLKPEETAVYYCAADYKTFLRSFDYWGQGTQVTVSS | high polyreactivity |
| QVQLVESGGGLVQAGGSLRLSCAASGFTIHRYAMGWYRQAPGKERELVAAIRWSGGRTYYADSVKGRFTISRDNAKNTVYLQMNSLKPEDTAVYYCAARTNSPRGYGSDYWGKGTQVTVSS | high polyreactivity |
| QVQLVESGGGLVQAGGSLRLSCAASGFTIIRYAMGWYRPAPGKERELVATITRRGGSTYYADSVKGRFTISRDNAKNTVYLQMNSLKPEDTAVYYCAARIRPLYANVRYGYWGQGTQVTVSS | high polyreactivity |
| QVQLVESGGGLVQAGGSLRLSCAASGFTIISYTMGWYRQAPGKERELVAAIRGGGRTYYADSVKGRFTISRDNAKNTVYLQMNSQKPEDTAVYYCASRLRYGGHYDYWGQGTQVTVSS | high polyreactivity |
| QVQLVESGGGLVQAGGSLRLSCAASGFTIPTYTMGWYRQAPGKEREFVARITKRGGSTYYADSVKGRFTISRDNAKNTVYLQMNGLKPEDTAVYYCNARRYGKVVRSRYNYWGQGTQVTVSS | high polyreactivity |
| QVQLVESGGGLVQAGGSLRLSCAASGFTIPVYVMGWYRQAPGKERELVAAITRTGGRTYYADSVKGRFTISRDNAKNTVYLQMNSLKPEDTAVYYCAAFTHRYGISEFDYWGQGTQVTVSS | high polyreactivity |
| QVQLVESGGGLVQAGGSLRLSCAASGFTIQRYAMGWYRQAPGKERELVAAITSGGSTYYADSVKGRFTISRDNAKNTVYLQMNSLKPEDTAVYYCATRAVWSSWGRRYDSWGQGTQVTVSS | high polyreactivity |
| QVQLVESGGGLVQAGGSLRLSCAASGFTIRSYVMGWYRQAPGKEREFVAAISYRGGGTNYADSVKGRFTISRDNAKNTVYLQMNSLKPEDTAVYYCNARSGSSKSGYYYWGQGTQVTVSS | high polyreactivity |
| QVQLVESGGGLVQAGGSLRLSCAASGFTIRWYLMGWYRQAPGKERELVAAISWSGDRTYYADSVKGRFTISRDNAKNTVYLQMNSLKPEDTAVYYCNSLSAFQVDNYDYWGQGTQVTVSS | high polyreactivity |
| QVQLVESGGGLVQAGGSLRLSCAASGFTIRYYAMGWYRQAPGKERELVAAIRFSGGSTYYADSVKGRFTISRDNAKNTVYLQMNSLKPEDTAVYYCNARRRYGLDLGTFGYWGQGTQVTVSS | high polyreactivity |
| QVQLVESGGGLVQAGGSLRLSCAASGFTIRYYAMGWYRQAPGKERELVAAISSSGGSTYYADSVKGRFTISRDNAKNTVYLQMNSLKTEDTAVYYCAAYYHGRMDYWGQGTQVTVSS | high polyreactivity |
| QVQLVESGGGLVQAGGSLRLSCAASGFTIRYYTMGWYRQAPGKERELVAAITWSGGRTYYADSVKGRFTISRDNAKNTVYLQMNSLKPDETAVYYCAADVTKRASRDYYWGQGTQVTVSS | high polyreactivity |
| QVQLVESGGGLVQAGGSLRLSCAASGFTITYYVMGWYRQAPGKERELVAAISSGGRTYYADSVKGRFTISRDNAKNTVYLQMNSLKPEDTAVYYCARAISIYPGFGYWGQGTQVTVSS | high polyreactivity |
| QVQLVESGGGLVQAGGSLRLSCAASGFTIVHYAMGWYRQAPGKERELVAAITWNGGRTYYADSVKGRFTISRDTAKNTVYLQMNSLKPEDTAVYYCAVRYKSWYGFNYWGQGTQVTVSS | high polyreactivity |
| QVQLVESGGGLVQAGGSLRLSCAASGFTIYIYVMGWYRQAPGKETELVADITWSGGRTYYADSVKGRFTISRDNAKNTVYLQMNSLKPEDTAVYYCAASYPGLSYHKYEYWGQGTQVTVSS | high polyreactivity |
| QVQLVESGGGLVQAGGSLRLSCAASGFTIYWYAMGWYRQAPGKERELVAAITRSGSSTYYADSVKGRFTISRDNAKNTVYVQMNSLKPEDTAVYYSAALPYTPYYDAYDYWGQGTQVTVSS | high polyreactivity |
| QVQLVESGGGLVQAGGSLRLSCAASGFTIYYYAMAWYRQAPGKERELVAAISYSGGSTYYADSVKGRFTISRDNAKNTVYLQMNSLKPEDTAVYYCAVDWYGSYGYGGSQKSDYWGLGTQVTVSS | high polyreactivity |
| QVQLVESGGGLVQAGGSLRLSCAASGFTIYYYAMGWYRQAPGKERELVASISWRGGSTYYADSVKGRFTISRDNAKNTDYIQINSLKAEDTAVYYCAAQKRGSPGNRRDYWGQGTQVTVSS | high polyreactivity |

From the nanobody polyreactivity screen of Harvey et al. (2022)
